In general, Kd refers to a measure of binding affinity in units of concentration.

The target in one data set is T1, ParB DBD (Caulobacter crescentus, UniProt B8GW30 126-243).
T1 sequence: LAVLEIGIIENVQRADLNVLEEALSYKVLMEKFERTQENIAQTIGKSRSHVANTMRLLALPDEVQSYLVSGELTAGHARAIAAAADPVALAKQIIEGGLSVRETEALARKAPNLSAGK
The data set is described as follows: X-ray crystallography 2.4 A; BLI: 100 mM Tris-HCl pH 7.4, 150 mM NaCl, 1 mM EDTA, 0.005% Tween 20; temperature not stated; biotinylated DNA on streptavidin sensor, protein typically 0-1000. Particulars: protein: recombinant; tags: C-terminal His6; chain copies: 2; blunt; palindrome, 2 strand copies.

Another data set concerns the target T2, ParB PtoN1 (QTAG) (Caulobacter crescentus, UniProt B8GW30 1-304, R173Q).
T2 sequence: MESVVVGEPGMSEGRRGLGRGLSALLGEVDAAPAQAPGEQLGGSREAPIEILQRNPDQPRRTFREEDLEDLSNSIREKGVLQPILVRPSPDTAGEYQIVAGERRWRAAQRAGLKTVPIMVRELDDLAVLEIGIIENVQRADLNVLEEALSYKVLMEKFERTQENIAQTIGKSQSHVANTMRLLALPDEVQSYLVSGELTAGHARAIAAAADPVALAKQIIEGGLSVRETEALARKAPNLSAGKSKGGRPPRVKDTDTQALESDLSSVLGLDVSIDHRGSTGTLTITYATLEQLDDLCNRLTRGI
Description: BLI; 1000 nM dimer; BLI: 100 mM Tris-HCl pH 7.4, 150 mM NaCl, 1 mM EDTA, 0.005% Tween 20; temperature not stated; biotinylated DNA on streptavidin sensor, protein typically 0-1000. Particulars: protein: recombinant; tags: C-terminal His6; chain copies: 2; label: 5' biotin on strand 1; blunt.

The next data set deals with T3, ParB PtoN7 (QTAR) (Caulobacter crescentus, UniProt B8GW30 1-304, R173Q;G201R).
T3 sequence: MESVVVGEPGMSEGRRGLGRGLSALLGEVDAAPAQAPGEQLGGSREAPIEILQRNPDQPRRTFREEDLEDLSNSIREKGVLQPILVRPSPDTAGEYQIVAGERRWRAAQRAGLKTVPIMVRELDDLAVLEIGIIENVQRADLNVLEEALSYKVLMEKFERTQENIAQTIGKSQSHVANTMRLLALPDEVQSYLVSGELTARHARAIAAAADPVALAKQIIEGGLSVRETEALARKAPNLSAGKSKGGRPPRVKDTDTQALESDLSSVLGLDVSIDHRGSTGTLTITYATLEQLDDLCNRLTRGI
The description is as above. Particulars: protein: recombinant; tags: C-terminal His6; chain copies: 2; label: 5' biotin on strand 1; blunt.

The next data set addresses T4, ParB WT (RTAG) (Caulobacter crescentus, UniProt B8GW30 1-304).
T4 sequence: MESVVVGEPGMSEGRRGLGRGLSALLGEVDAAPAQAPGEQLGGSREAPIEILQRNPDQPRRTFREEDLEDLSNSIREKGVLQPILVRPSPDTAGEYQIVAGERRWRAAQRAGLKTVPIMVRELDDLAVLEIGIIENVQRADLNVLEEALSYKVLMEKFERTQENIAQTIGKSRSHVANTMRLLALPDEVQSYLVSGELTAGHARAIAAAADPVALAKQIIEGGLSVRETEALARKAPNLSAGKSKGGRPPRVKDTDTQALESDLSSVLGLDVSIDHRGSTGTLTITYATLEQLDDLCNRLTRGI
The data set is described as follows: BLI; BLI: 100 mM Tris-HCl pH 7.4, 150 mM NaCl, 1 mM EDTA, 0.005% Tween 20; temperature not stated; biotinylated DNA on streptavidin sensor, protein typically 0-1000. Particulars: protein: recombinant; tags: C-terminal His6; chain copies: 2; label: 5' biotin on strand 1; blunt.

B1: parS 20-bp crystal duplex (dsDNA)
DNA 1: GATGTTTCACGTGAAACATC
DNA 2: GATGTTTCACGTGAAACATC
For B1, the binding result with ParB DBD is “binds”.

B2: site8 (dsDNA)
DNA 1: GGGATTTTTCACGTGAAAAA
DNA 2: TTTTTCACGTGAAAAATCCC
For the molecule B2, the binding result with ParB PtoN1 (QTAG) and in the data set with ParB PtoN7 (QTAR) was “no binding” in each case.

B3: site5 (dsDNA)
DNA 1: GGGATCTTTCTCGAGAAAGA
DNA 2: TCTTTCTCGAGAAAGATCCC
On to B3, for which the binding result with ParB PtoN1 (QTAG) and with ParB PtoN7 (QTAR) was “no binding” in each case.

B4: site13 (dsDNA)
DNA 1: GGGATATTTCTCGAGAAATA
DNA 2: TATTTCTCGAGAAATATCCC
Turning to B4, the binding result with ParB PtoN1 (QTAG) and with ParB PtoN7 (QTAR) was “no binding” each time.

B5: NBS BLI duplex (dsDNA)
DNA 1: GGGATATTTCCCGGGAAATA
DNA 2: TATTTCCCGGGAAATATCCC
For the molecule B5, the binding result in the data set with ParB PtoN1 (QTAG) and with ParB PtoN7 (QTAR) was “no binding” in each case.

B6: site11 (dsDNA)
DNA 1: GGGATTTTTCCCGGGAAAAA
DNA 2: TTTTTCCCGGGAAAAATCCC
For B6, the binding result with ParB PtoN1 (QTAG) and with ParB PtoN7 (QTAR) was “no binding” each time.

B7: site7 (dsDNA)
DNA 1: GGGATCTTTCCCGGGAAAGA
DNA 2: TCTTTCCCGGGAAAGATCCC
For the molecule B7, the binding result in the data set with ParB PtoN1 (QTAG) and in the data set with ParB PtoN7 (QTAR) was “no binding” each time.

B8: site2 (dsDNA)
DNA 1: GGGATGTTTCGCGCGAAACA
DNA 2: TGTTTCGCGCGAAACATCCC
Consider B8, for which the binding result with ParB PtoN1 (QTAG) and with ParB PtoN7 (QTAR) was “no binding” each time.

B9: site14 (dsDNA)
DNA 1: GGGATATTTCGCGCGAAATA
DNA 2: TATTTCGCGCGAAATATCCC
As for B9, the binding result in the data set with ParB PtoN1 (QTAG) and with ParB PtoN7 (QTAR) was “no binding” in each case.

B10: site1 (dsDNA)
DNA 1: GGGATGTTTCTCGAGAAACA
DNA 2: TGTTTCTCGAGAAACATCCC
With B10, the binding result with ParB PtoN1 (QTAG) and with ParB PtoN7 (QTAR) was “no binding” throughout.

B11: site10 (dsDNA)
DNA 1: GGGATTTTTCGCGCGAAAAA
DNA 2: TTTTTCGCGCGAAAAATCCC
B11: the binding result in the data set with ParB PtoN1 (QTAG) and with ParB PtoN7 (QTAR) was “no binding” each time.

B12: site9 (dsDNA)
DNA 1: GGGATTTTTCTCGAGAAAAA
DNA 2: TTTTTCTCGAGAAAAATCCC
Turning to B12, the binding result with ParB PtoN1 (QTAG) and with ParB PtoN7 (QTAR) was “no binding” throughout.

B13: parS BLI duplex (dsDNA)
DNA 1: GGGATGTTTCACGTGAAACA
DNA 2: TGTTTCACGTGAAACATCCC
Consider B13, for which, in the data set with ParB WT (RTAG), the Kd was 0.011 ± 0.007 µM. The binding result in the data set with ParB PtoN1 (QTAG) and with ParB PtoN7 (QTAR) was “no binding” each time.

B14: site3 (dsDNA)
DNA 1: GGGATGTTTCCCGGGAAACA
DNA 2: TGTTTCCCGGGAAACATCCC
Take B14: the binding result with ParB PtoN1 (QTAG) and with ParB PtoN7 (QTAR) was “no binding” in each case.

B15: site12 (dsDNA)
DNA 1: GGGATATTTCACGTGAAATA
DNA 2: TATTTCACGTGAAATATCCC
For B15, the binding result with ParB PtoN1 (QTAG) and in the data set with ParB PtoN7 (QTAR) was “no binding” each time.

B16: site6 (dsDNA)
DNA 1: GGGATCTTTCGCGCGAAAGA
DNA 2: TCTTTCGCGCGAAAGATCCC
In the case of B16, the binding result with ParB PtoN1 (QTAG) and with ParB PtoN7 (QTAR) was “no binding” throughout.

B17: site4 (dsDNA)
DNA 1: GGGATCTTTCACGTGAAAGA
DNA 2: TCTTTCACGTGAAAGATCCC
Take B17: the binding result in the data set with ParB PtoN1 (QTAG) and with ParB PtoN7 (QTAR) was “no binding” throughout.

The values above are taken from article PMC7383237, “Diversification of DNA-Binding Specificity by Permissive and Specificity-Switching Mutations in the ParB/Noc Protein Family”.
